B1: Speckle-type POZ protein (Homo sapiens), O43791 (parent)
chain: MSRVPSPPPPAEMSSGPVAESWCYTQIKVVKFSYMWTINNFSFCREEMGEVIKSSTFSSGANDKLKWCLRVNPKGLDEESKDYLSLYLLLVSCPKSEVRAKFKFSILNAKGEETKAMESQRAYRFVQGKDWGFKKFIRRDFLLDEANGLLPDDKLTLFCEVSVVQDSVNISGQNTMNMVKVPECRLADELGGLWENSRFTDCCLCVAGQEFQAHKAILAARSPVFSAMFEHEMEESKKNRVEINDVEPEVFKEMMCFIYTGKAPNLDKMADDLLAAADKYALERLKVMCEDALCSNLSVENAAEILILADLHSADQLKTQAVDFINYHASDVLETSGWKSMVVSHPHLVAEAYRSLASAQCPFLGPPRKRLKQS

Variants of: B1
Conditions: with brd4_human BRD4, O60885

Variant	effect of a mutation on the interaction
F133L	disrupting interaction strength

Variants of: B1
Conditions: with ncoa3_human NCOA3, Q9Y6Q9

Variant	effect of a mutation on the interaction
F133L	disrupting interaction strength

Variants of: B1
Conditions: with jun_human JUN

Variant	effect of a mutation on the interaction
F133L	with no effect

Variants of: B1
Conditions: with akt1_human AKT1, P31749

Variant	effect of a mutation on the interaction
F133L	with no effect

Variants of: B1
Conditions: with alk_human ALK

Variant	effect of a mutation on the interaction
F133L	with no effect

Variants of: B1
Conditions: with aph1a_human APH1A

Variant	effect of a mutation on the interaction
F133L	with no effect

Variants of: B1
Conditions: with arnt_human ARNT

Variant	effect of a mutation on the interaction
F133L	with no effect

Variants of: B1
Conditions: with arc1a_human ARPC1A

Variant	effect of a mutation on the interaction
F133L	with no effect

Variants of: B1
Conditions: with arrb2_human ARRB2, P32121

Variant	effect of a mutation on the interaction
F133L	with no effect

Variants of: B1
Conditions: with bakor_human ATG14, Q6ZNE5

Variant	effect of a mutation on the interaction
F133L	with no effect

Variants of: B1
Conditions: with atm_human ATM

Variant	effect of a mutation on the interaction
F133L	with no effect

Variants of: B1
Conditions: with atpb_human ATP5F1B

Variant	effect of a mutation on the interaction
F133L	with no effect

Variants of: B1
Conditions: with aurkb_human AURKB

Variant	effect of a mutation on the interaction
F133L	with no effect

Variants of: B1
Conditions: with axin2_human AXIN2, Q9Y2T1

Variant	effect of a mutation on the interaction
F133L	with no effect

Variants of: B1
Conditions: with za2g_human AZGP1, P25311

Variant	effect of a mutation on the interaction
F133L	with no effect

Variants of: B1
Conditions: with bap1_human BAP1, Q92560

Variant	effect of a mutation on the interaction
F133L	with no effect

Variants of: B1
Conditions: with bcor_human BCOR

Variant	effect of a mutation on the interaction
F133L	with no effect

Variants of: B1
Conditions: with brd4_human BRD4, O60885
Remark: another data set of the same source

Variant	effect of a mutation on the interaction
F133L	with no effect

Variants of: B1
Conditions: with baba2_human BABAM2, Q9NXR7

Variant	effect of a mutation on the interaction
F133L	with no effect

Variants of: B1
Conditions: with btg1_human BTG1, P62324

Variant	effect of a mutation on the interaction
F133L	with no effect

Variants of: B1
Conditions: with btk_human BTK

Variant	effect of a mutation on the interaction
F133L	with no effect

Variants of: B1
Conditions: with cblb_human CBLB

Variant	effect of a mutation on the interaction
F133L	with no effect

Variants of: B1
Conditions: with ccnd1_human CCND1, P24385

Variant	effect of a mutation on the interaction
F133L	with no effect

Variants of: B1
Conditions: with ccnd2_human CCND2, P30279

Variant	effect of a mutation on the interaction
F133L	with no effect

Variants of: B1
Conditions: with ccnd3_human CCND3, P30281

Variant	effect of a mutation on the interaction
F133L	with no effect

Variants of: B1
Conditions: with cd44_human CD44, P16070

Variant	effect of a mutation on the interaction
F133L	with no effect

Variants of: B1
Conditions: with cd79b_human CD79B

Variant	effect of a mutation on the interaction
F133L	with no effect

Variants of: B1
Conditions: with cdc27_human CDC27, P30260

Variant	effect of a mutation on the interaction
F133L	with no effect

Variants of: B1
Conditions: with cdc73_human CDC73, Q6P1J9

Variant	effect of a mutation on the interaction
F133L	with no effect

Variants of: B1
Conditions: with cdk4_human CDK4, P11802

Variant	effect of a mutation on the interaction
F133L	with no effect

Variants of: B1
Conditions: with cdk6_human CDK6, Q00534

Variant	effect of a mutation on the interaction
F133L	with no effect

Variants of: B1
Conditions: with cdn2c_human CDKN2C

Variant	effect of a mutation on the interaction
F133L	with no effect

Variants of: B1
Conditions: with chd1l_human CHD1L

Variant	effect of a mutation on the interaction
F133L	with no effect

Variants of: B1
Conditions: with chd2_human CHD2, O14647

Variant	effect of a mutation on the interaction
F133L	with no effect

Variants of: B1
Conditions: with chk2_human CHEK2, O96017

Variant	effect of a mutation on the interaction
F133L	with no effect

Variants of: B1
Conditions: with ch3l1_human CHI3L1, P36222

Variant	effect of a mutation on the interaction
F133L	with no effect

Variants of: B1
Conditions: with csf1r_human CSF1R

Variant	effect of a mutation on the interaction
F133L	with no effect

Variants of: B1
Conditions: with ctla4_human CTLA4, P16410

Variant	effect of a mutation on the interaction
F133L	with no effect

Variants of: B1
Conditions: with cul3_human CUL3, Q13618

Variant	effect of a mutation on the interaction
F133L	with no effect

Variants of: B1
Conditions: with daxx_human DAXX

Variant	effect of a mutation on the interaction
F133L	with no effect

Variants of: B1
Conditions: with ddx5_human DDX5, P17844

Variant	effect of a mutation on the interaction
F133L	with no effect

Variants of: B1
Conditions: with dll3_human DLL3, Q9NYJ7

Variant	effect of a mutation on the interaction
F133L	with no effect

Variants of: B1
Conditions: with duox2_human DUOX2, Q9NRD8

Variant	effect of a mutation on the interaction
F133L	with no effect

Variants of: B1
Conditions: with e2f2_human E2F2, Q14209

Variant	effect of a mutation on the interaction
F133L	with no effect

Variants of: B1
Conditions: with e2f3_human E2F3, O00716

Variant	effect of a mutation on the interaction
F133L	with no effect

Variants of: B1
Conditions: with e2f5_human E2F5, Q15329

Variant	effect of a mutation on the interaction
F133L	with no effect

Variants of: B1
Conditions: with e2f6_human E2F6, O75461

Variant	effect of a mutation on the interaction
F133L	with no effect

Variants of: B1
Conditions: with e2f8_human E2F8, A0AVK6

Variant	effect of a mutation on the interaction
F133L	with no effect

Variants of: B1
Conditions: with if4e_human EIF4E

Variant	effect of a mutation on the interaction
F133L	with no effect

Variants of: B1
Conditions: with epha7_human EPHA7, Q15375

Variant	effect of a mutation on the interaction
F133L	with no effect

Variants of: B1
Conditions: with ephb1_human EPHB1, P54762

Variant	effect of a mutation on the interaction
F133L	with no effect

Variants of: B1
Conditions: with erbb3_human ERBB3, P21860

Variant	effect of a mutation on the interaction
F133L	with no effect

Variants of: B1
Conditions: with erbb4_human ERBB4, Q15303

Variant	effect of a mutation on the interaction
F133L	with no effect

Variants of: B1
Conditions: with esr1_human ESR1, P03372

Variant	effect of a mutation on the interaction
F133L	with no effect

Variants of: B1
Conditions: with etv1_human ETV1, P50549

Variant	effect of a mutation on the interaction
F133L	with no effect

Variants of: B1
Conditions: with ezh1_human EZH1, Q92800

Variant	effect of a mutation on the interaction
F133L	with no effect

Variants of: B1
Conditions: with ezh2_human EZH2, Q15910

Variant	effect of a mutation on the interaction
F133L	with no effect

Variants of: B1
Conditions: with facd2_human FANCD2, Q9BXW9

Variant	effect of a mutation on the interaction
F133L	with no effect

Variants of: B1
Conditions: with fgf19_human FGF19, O95750

Variant	effect of a mutation on the interaction
F133L	with no effect

Variants of: B1
Conditions: with fgfp1_human FGFBP1, Q14512

Variant	effect of a mutation on the interaction
F133L	with no effect

Reference: IntAct's records for PubMed 35512704
